In series [1] the target is APE1 (human AP endonuclease 1), His-tagged (Homo sapiens) (UniProt P27695). The experiment in a line: BLI. The settings on record: 1 mM Ca2+, N = F, BLI: 20 mM Tris-HCl pH 7.5, 100 mM KCl, 1 mM CaCl2, DNA 10-100 nM, temperature not stated, DNA annealed with at least 20 mM KCl.
Series [2] deals with APE1 (human AP endonuclease 1), His-tagged (Homo sapiens, UniProt P27695 1-318). The experiment in a line: BLI; 1 mM Ca2+; BLI: 20 mM Tris-HCl pH 7.5, 100 mM KCl, 1 mM CaCl2; DNA 10-100 nM; temperature not stated; DNA annealed with at least 20 mM KCl. As to conditions: protein: recombinant; label: 3'-TAMRA; three stacked intramolecular parallel G4s.
Sequence of APE1 (human AP endonuclease 1), His-tagged (P27695 whole entry): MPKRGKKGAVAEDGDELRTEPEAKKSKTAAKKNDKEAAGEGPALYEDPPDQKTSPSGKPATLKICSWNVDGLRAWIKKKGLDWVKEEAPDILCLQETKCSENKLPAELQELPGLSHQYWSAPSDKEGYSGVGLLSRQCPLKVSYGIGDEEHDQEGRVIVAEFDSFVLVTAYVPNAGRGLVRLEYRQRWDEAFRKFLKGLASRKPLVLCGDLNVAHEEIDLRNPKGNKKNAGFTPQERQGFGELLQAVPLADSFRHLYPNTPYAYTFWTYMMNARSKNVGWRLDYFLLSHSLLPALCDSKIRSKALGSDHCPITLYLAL

Sequence of APE1 (human AP endonuclease 1), His-tagged (Homo sapiens) (P27695 whole entry): as above

A word on the Kd: it is the constant that tells how readily two partners part at equilibrium. As to “GCCGCGGAAAGGAAGGGGAGGGGCTGGGAGGGCCCGGANGGGGCTGGGCCGGGGACCCGGGAGGGGTCGGGACGGGGCGGGGTCCGCGCGGAGGAG [96-G228F]”, in series [1] (stable AP site analog), the equilibrium dissociation constant (Kd) is 3 nM. On to “GCCGCGGAAAGGAAGGGGAGGGGCTGGGAGGGCCCGGAGGGGGCTGGGCCGGNGACCCGGGAGGGGTCGGGACGGGGCGGGGTCCGCGCGGAGGAG [96-G243F]”, for which the Kd in series [1] (stable AP site analog) was 3 nM. In series [1] (stable AP site analog (two)), “GCCGCGGAAAGGAAGGGGAGGGGCTGGGAGGGCCCGGAGGGGGCTGGGCCGNNGACCCGGGAGGGGTCGGGACGGGGCGGGGTCCGCGCGGAGGAG [96-G242,243F]” gave a Kd of 3 nM.

Molecule “ACCTGGATGCCTATAGGGCGAATTGGGTACCGCTGAATTGCACTGGACTNGATCCTCGATGATCCTAAGCTAAGCTTCAGCTCCAGCCTAAGCCTG [96-RF]” returned a Kd fold-increase relative to G4 substrates (fold higher Kd than G4 substrates) in series [1] (stable AP site analog) of 10. In turn, “GCCGCGGAAAGGAAGGGGAGGGGCTGGGAGGGCCCGGAGGGGGCTGGGCCGNGGACCCGGGAGGGGTCGGGACGGGGCGGGGTCCGCGCGGAGGAG [96-G242F]” registered a Kd in series [1] (stable AP site analog) of 3 nM. In series [1] (stable AP site analog), “GCCGCGGAAAGGAAGGGGAGGGGCTGGGAGGGCCCGGAGGGGGCTGGGCCGGGGACCCGGNAGGGGTCGGGACGGGGCGGGGTCCGCGCGGAGGAG [96-G250F]” came in with a Kd of 3 nM.

B1: 96-G4 (structured_DNA)
DNA: GCCGCGGAAAGGAAGGGGAGGGGCTGGGAGGGCCCGGAGGGGGCTGGGCCGGGGACCCGGGAGGGGTCGGGACGGGGCGGGGTCCGCGCGGAGGAG
As to B1, the dissociation constant Kd in series [2] came to 4.2 ± 1.4 nM.
